{"source": "paper PMC12149301", "molecular_target": "CDTb D623A + D734A Ca^2+-binding double mutant, active form (Clostridioides difficile)", "test": "cryo-EM structure", "data": [{"substance": "CDTb D623A + D734A Ca^2+-binding double mutant, active form (natural protein)", "values": [{"measurement": "stoichiometry N", "result": 7}]}]}
